{"source": "paper PMC3968096", "key": {"[1]": {"system": "T1, VEGF165 (soluble) (human), P15692-4", "T1 sequence": "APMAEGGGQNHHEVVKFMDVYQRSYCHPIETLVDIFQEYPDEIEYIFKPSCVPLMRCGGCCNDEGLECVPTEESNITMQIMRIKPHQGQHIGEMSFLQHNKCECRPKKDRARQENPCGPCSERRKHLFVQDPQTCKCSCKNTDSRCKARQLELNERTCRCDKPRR", "assay": "F-EMSA", "details": "1 mM Mg2+, 10 mM HEPES pH 7.9, 125 mM NaCl, 25 mM KCl, 1 mM MgCl2, F-EMSA at room temperature for 2 h, 5% PAGE at 4 C, flow cytometry in the same buffer"}, "PDGF-A (human)": {"biological_target": "PDGF-A (human) (UniProt P04085)", "assay": "flow cytometry, yeast display", "details": "10 mM HEPES pH 7.9, 125 mM NaCl, 25 mM KCl, 1 mM MgCl2; F-EMSA at room temperature for 2 h, 5% PAGE at 4 C; flow cytometry in the same buffer"}}, "data": [{"sequence": "AAAGCCCACTGCATAGAGGCCGCTCAACATGCGAGCCGGT [hVap2_T2160]", "values": [{"measurement": "Kd", "setting": "[1]; same value is also printed for SL12", "value": 107, "unit": "nM"}]}, {"sequence": "CAGAGCAGGGCGCCGTGTCGCATAGTGTTGTCACTCCCCTGGAGGTCCATGCGAAATATG [hPAap1]", "values": [{"measurement": "Kd", "setting": "PDGF-A (human)", "value": 4000, "unit": "nM"}]}, {"sequence": "TAGCCCACTGCATAGAGGTAGCCACGTATGTGGGTGTTACCCATTCGTAGCTACCGGTGA [hVap1 full-length (100 nt)]", "values": [{"measurement": "Kd", "setting": "[1]", "value": 1.4, "unit": "nM"}]}]}
